{
  "source": "patent US20120178908A1",
  "about": "(Novo Nordisk, published 2012)",
  "binders": {"B1": {"name": "Factor VIIa (FVIIa) (protein)", "chain": "ANAFLEELRPGSLERECKEEQCSFEEAREIFKDAERTKLFWISYSDGDQCASSPCQNGGSCKDQLQSYICFCLPAFEGRNCETHKDDQLICVNENGGCEQYCSDHTGTKRSCRCHEGYSLLADGVSCTPTVEYPCGKIPILEKRNASKPQGRIVGGKVCPKGECPWQVLLLVNGAQLCGGTLINTIWVVSAAHCFDKIKNWRNLIAVLGEHDLSEHDGDEQSRRVAQVIIPSTYVPGTTNHDIALLRLHQPVVLTDHVVPLCLPERTFSERTLAFVRFSLVSGWGQLLDRGATALELMVLNVPRLMTQDCLQQSRKVGDSPNITEYMFCAGYSDGSKDSCKGDSGGPHATHYRGTWYLTGIVSWGQGCATVGHFGVYTRVSQYIEWLQKLMRSEPRPGVLLRAPFP"}, "B2": {"name": "Fab 0012-LC-L4a-hTF.1-219; VH-CH1-HPC4 (other)", "light": "DVVMTQTPLSLPVSLGDQASISCRSSQSLVHRNGNTYFHWCLQKPGQSPKLLIYKVSNRFSGVPDRFSGSGSGTDFTLKISRVEAEDLGVYFCSQSTHVPYTFGGGTKLEIKRTVAAPSVFIFPPSDEQLKSGTASVVCLLNNFYPREAKVQWKVDNALQSGNSQESVTEQDSKDSTYSLSSTLTLSKADYEKHKVYACEVTHQGLSSPVTKSFNRGECGSGGGGSGGGGSGGGGSSGTTNTVAAYNLTWKSTNFKTILEWEPKPVNQVYTVQISTKSGDWKSKCFYTTDTECDLTDEIVKDVKQTYLARVFSYPAGNVESTGSAGEPLYENSPEFTPYLETNLGQPTIQSFEQVGTKVNVTVEDERTLVRRNNTFLSLRDVFGKDLIYTLYYWKSSSSGKKTAKTNTNEFLIDVDKGENYCFSVQAVIPSRTVNRKSTDSPVECMGQEKGEFRE", "heavy": "EVKLLESGGGLVQPGGSLKLSCAASGFDFSRYWMTWVRQAPGKGLEWIGEINPDSSTINYTPSLKDKFIISRDNAKNTLYLQMSEVRSEDTALYYCASGVFTSWGQGTLVTVSAASTKGPSVFPLAPCSRSTSESTAALGCLVKDYFPEPVTVSWNSGALTSGVHTFPAVLQSSGLYSLSSVVTVPSSSLGTKTYTCNVDHKPSNTKVDKRVESKEDQVDPRLIDGK"}, "B3": {"name": "Fab AP-3-LC.C34S-L4a-hTF.1-219; VH-CH1-HPC4 (other)", "light": "DIVMTQAAPSVPVTPGESVSISCRSSRSLLHSNGNTYLSWFLQRPGQSPQLLIYRMSNLASGVPDRFSGSGSGTAFTLRISRVEAEDVGVYYCMQHLEYPFTFGSGTKLEIKRTVAAPSVFIFPPSDEQLKSGTASVVCLLNNFYPREAKVQWKVDNALQSGNSQESVTEQDSKDSTYSLSSTLTLSKADYEKHKVYACEVTHQGLSSPVTKSFNRGECGSGGGGSGGGGSGGGGSSGTTNTVAAYNLTWKSTNFKTILEWEPKPVNQVYTVQISTKSGDWKSKCFYTTDTECDLTDEIVKDVKQTYLARVFSYPAGNVESTGSAGEPLYENSPEFTPYLETNLGQPTIQSFEQVGTKVNVTVEDERTLVRRNNTFLSLRDVFGKDLIYTLYYWKSSSSGKKTAKTNTNEFLIDVDKGENYCFSVQAVIPSRTVNRKSTDSPVECMGQEKGEFRE", "heavy": "QVQLQQSGAELVRPGTSVKISCKASGYTFTNYWLGWVKQRPGHGLEWIGDIYPGGGYNKYNENFKGKATLTADTSSSTAYMQLSSLTSEDSAVYFCAREYGNYDYAMDSWGQGTSVTVSSASTKGPSVFPLAPCSRSTSESTAALGCLVKDYFPEPVTVSWNSGALTSGVHTFPAVLQSSGLYSLSSVVTVPSSSLGTKTYTCNVDHKPSNTKVDKRVESKEDQVDPRLIDGK"}, "B4": {"name": "Fab 0012-LC-HPC4; VH-CH1 (Fab)", "heavy": "EVKLLESGGGLVQPGGSLKLSCAASGFDFSRYWMTWVRQAPGKGLEWIGEINPDSSTINYTPSLKDKFIISRDNAKNTLYLQMSEVRSEDTALYYCASGVFTSWGQGTLVTVSAASTKGPSVFPLAPCSRSTSESTAALGCLVKDYFPEPVTVSWNSGALTSGVHTFPAVLQSSGLYSLSSVVTVPSSSLGTKTYTCNVDHKPSNTKVDKRVESK", "light": "DVVMTQTPLSLPVSLGDQASISCRSSQSLVHRNGNTYFHWCLQKPGQSPKLLIYKVSNRFSGVPDRFSGSGSGTDFTLKISRVEAEDLGVYFCSQSTHVPYTFGGGTKLEIKRTVAAPSVFIFPPSDEQLKSGTASVVCLLNNFYPREAKVQWKVDNALQSGNSQESVTEQDSKDSTYSLSSTLTLSKADYEKHKVYACEVTHQGLSSPVTKSFNRGECEDQVDPRLIDGK", "notes": "Anti-TLT-1 Fab without tissue factor; also called 0010; 0010 Fab"}, "B5": {"name": "TLT1 (human TLT-1, reagent of the SPR studies, source NN) (receptor)", "chain": "QGIVGSLPEVLQAPVGSSILVQCHYRLQDVKAQKVWCRFLPEGCQPLVSSAVDRRAPAGRRTFLTDLGGGLLQVEMVTLQEEDAGEYGCMVDGARGPQILHRVSLNILPPEEEEETHKIGSLAENAFSDPAGSANPLEPSQDEKSIP"}},
  "key": {"[1]": {"target": "mAb-hTF.1-219 fusion proteins (those tested in FIG. 7)"}, "[2]": {"target": "T1, hTF.1-219 (soluble tissue factor)", "T1 chain": "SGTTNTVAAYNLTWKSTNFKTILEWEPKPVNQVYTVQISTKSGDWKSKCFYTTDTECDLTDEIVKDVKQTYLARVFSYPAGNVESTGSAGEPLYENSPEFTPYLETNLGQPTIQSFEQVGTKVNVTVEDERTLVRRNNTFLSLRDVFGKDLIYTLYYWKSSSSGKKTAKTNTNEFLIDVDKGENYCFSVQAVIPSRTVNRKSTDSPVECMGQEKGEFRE"}, "[3]": {"target": "Fab-hTF.1-219 fusion proteins (those tested in FIG. 7)"}, "[4]": {"target": "T2, TLT-1 receptor on the surface of activated human platelets (human, UniProt Q86YW5 16-311)", "T2 sequence": "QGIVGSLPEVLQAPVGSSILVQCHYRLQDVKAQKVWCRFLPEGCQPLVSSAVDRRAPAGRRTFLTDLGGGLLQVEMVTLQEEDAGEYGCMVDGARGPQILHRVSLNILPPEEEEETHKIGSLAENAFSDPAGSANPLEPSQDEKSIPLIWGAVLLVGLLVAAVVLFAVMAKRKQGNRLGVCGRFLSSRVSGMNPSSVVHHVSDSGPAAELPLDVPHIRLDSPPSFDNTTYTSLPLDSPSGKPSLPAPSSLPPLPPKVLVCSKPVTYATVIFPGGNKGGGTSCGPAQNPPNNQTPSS", "experiment": "cell-based or functional assay"}, "[5]": {"target": "T3, TLT-1 18-188 relipidated in 20:80 PS:PC vesicles (human, UniProt Q86YW5 18-188)", "T3 sequence": "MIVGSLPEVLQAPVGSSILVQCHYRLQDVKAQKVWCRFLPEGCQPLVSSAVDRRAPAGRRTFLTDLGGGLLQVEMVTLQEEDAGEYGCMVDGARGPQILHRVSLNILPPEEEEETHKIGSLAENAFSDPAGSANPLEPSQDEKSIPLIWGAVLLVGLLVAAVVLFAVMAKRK", "experiment": "cell-based or functional assay"}, "[6]": {"target": "T4, GPIIbIIIa receptor on human platelets (human, UniProt P08514 32-1039; P05106 27-788)", "T4 sequence (P08514 32-1039, chain 1 of 2)": "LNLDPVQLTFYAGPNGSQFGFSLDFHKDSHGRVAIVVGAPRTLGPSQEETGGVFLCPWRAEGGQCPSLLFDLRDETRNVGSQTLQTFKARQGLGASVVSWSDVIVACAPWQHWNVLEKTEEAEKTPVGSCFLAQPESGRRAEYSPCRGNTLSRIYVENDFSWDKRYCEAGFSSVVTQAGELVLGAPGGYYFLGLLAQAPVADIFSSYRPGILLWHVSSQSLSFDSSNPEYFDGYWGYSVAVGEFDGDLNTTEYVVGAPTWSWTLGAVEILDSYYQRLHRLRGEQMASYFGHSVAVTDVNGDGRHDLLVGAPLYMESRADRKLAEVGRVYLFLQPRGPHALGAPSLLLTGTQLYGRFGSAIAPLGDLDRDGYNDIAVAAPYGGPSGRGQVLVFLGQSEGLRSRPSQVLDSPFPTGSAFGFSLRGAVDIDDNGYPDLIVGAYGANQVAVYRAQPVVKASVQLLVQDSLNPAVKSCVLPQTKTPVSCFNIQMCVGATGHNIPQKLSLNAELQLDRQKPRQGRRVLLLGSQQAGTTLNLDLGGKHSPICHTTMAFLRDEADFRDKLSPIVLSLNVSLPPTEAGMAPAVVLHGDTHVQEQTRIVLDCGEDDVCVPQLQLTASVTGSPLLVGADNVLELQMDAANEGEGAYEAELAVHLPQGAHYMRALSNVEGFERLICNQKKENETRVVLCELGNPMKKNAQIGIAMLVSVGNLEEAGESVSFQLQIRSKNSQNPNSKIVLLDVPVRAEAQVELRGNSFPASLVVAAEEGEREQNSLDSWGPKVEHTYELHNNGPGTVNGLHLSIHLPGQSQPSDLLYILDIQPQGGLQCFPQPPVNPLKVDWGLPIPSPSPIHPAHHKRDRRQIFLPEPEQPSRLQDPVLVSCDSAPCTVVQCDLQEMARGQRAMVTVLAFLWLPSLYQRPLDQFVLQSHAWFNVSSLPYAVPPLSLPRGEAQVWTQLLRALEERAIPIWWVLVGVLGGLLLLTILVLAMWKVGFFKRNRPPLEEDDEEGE", "T4 sequence (P05106 27-788, chain 2 of 2)": "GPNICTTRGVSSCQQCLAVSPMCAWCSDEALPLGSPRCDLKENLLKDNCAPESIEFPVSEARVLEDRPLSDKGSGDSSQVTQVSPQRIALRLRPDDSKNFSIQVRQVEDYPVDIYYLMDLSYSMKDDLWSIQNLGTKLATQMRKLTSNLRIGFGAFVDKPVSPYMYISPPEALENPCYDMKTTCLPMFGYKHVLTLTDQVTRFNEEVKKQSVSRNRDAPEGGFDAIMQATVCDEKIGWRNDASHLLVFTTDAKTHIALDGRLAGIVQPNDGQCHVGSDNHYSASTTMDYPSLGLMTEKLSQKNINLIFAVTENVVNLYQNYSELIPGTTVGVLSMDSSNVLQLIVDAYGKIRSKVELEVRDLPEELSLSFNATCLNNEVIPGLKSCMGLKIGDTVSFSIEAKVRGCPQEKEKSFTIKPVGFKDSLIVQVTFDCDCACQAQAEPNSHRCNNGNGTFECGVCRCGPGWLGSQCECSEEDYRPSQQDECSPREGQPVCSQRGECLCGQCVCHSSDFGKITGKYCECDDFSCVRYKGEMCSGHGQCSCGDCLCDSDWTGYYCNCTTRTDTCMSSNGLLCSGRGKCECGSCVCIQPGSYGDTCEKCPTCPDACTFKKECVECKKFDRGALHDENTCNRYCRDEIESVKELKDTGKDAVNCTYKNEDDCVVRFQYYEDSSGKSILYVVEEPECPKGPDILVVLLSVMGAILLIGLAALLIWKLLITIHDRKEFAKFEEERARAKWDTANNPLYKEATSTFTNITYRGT", "experiment": "cell-based or functional assay"}, "[7]": {"target": "T4, GPIIbIIIa receptor on human platelets", "experiment": "cell-based or functional assay", "remark": "listed apart in the source"}, "[8]": {"target": "T2, TLT-1 receptor on the surface of …", "experiment": "flow cytometry on activated human platelets, detection: anti HPC4 tag ab."}, "[9]": {"target": "T5, human fibrinogen (HCI-0150R, Haematologic Technologies) (human, UniProt P02671 20-629; P02675 31-491; P02679 27-437, limits assumed)", "T5 construct": "Chain composition is general knowledge", "T5 sequence (looked up) 1": "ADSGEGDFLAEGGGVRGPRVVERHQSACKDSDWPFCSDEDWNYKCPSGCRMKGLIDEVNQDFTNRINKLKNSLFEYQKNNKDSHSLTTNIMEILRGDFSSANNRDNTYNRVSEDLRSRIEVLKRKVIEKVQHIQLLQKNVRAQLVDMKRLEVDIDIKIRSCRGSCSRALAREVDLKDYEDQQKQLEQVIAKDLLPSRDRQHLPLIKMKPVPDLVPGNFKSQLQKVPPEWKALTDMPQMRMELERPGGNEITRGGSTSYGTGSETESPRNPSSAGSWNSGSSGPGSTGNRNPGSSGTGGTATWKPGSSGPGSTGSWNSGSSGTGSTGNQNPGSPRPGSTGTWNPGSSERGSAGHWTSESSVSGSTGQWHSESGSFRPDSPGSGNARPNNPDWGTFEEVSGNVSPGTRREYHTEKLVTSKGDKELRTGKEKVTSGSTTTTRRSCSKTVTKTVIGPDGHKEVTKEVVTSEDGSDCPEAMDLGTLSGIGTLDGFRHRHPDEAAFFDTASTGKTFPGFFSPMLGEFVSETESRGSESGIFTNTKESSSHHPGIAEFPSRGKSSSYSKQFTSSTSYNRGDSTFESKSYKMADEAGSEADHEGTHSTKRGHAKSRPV", "T5 sequence (looked up) 2": "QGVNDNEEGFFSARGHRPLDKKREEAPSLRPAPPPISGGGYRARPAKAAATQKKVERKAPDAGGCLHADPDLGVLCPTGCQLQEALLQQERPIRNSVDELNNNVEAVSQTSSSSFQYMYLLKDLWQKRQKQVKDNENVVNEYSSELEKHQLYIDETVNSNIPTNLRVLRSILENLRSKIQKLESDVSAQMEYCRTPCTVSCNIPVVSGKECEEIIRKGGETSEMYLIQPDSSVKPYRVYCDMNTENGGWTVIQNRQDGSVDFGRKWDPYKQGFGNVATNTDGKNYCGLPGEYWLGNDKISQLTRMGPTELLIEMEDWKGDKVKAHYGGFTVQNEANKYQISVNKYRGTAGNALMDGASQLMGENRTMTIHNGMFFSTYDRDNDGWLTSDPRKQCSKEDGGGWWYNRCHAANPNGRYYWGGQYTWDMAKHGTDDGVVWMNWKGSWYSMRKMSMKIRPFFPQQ", "T5 sequence (looked up) 3": "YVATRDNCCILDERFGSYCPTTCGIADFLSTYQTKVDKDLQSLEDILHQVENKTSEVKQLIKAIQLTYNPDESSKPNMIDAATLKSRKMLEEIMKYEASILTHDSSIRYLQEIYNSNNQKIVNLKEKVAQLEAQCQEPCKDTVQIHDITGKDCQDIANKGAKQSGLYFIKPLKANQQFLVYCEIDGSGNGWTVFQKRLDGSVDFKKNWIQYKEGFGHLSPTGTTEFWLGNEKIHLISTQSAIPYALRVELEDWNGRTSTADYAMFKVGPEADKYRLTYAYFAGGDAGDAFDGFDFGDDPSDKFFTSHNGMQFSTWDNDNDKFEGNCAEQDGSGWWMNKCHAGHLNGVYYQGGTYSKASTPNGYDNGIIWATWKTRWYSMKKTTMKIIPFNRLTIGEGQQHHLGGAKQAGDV", "experiment": "SPR (Biacore T100), TLT1 immobilised on CM5, fibrinogen 200 nM to 0.2 nM as analyte", "protocol": "(§1) Human TLT1 was immobilised to a level of approx 1000 RU on a CM5 chip (50 μg/ml diluted in Na-acetate, pH 4.0) using the standard procedure recommended by the supplier. Four-fold dilutions of human fibrinogen from 200 nM to 0.2 nM were tested for binding to the immobilized TLT1. Running and dilution buffer: 10 mM HEPES, 150 mM, 0.005% p20, pH 7.4. Regeneration was obtained by 10 mM Glycine, pH 1.7. Determination of kinetic and binding constants (kₒₙ, koff, KD) was obtained assuming a 1:1 interaction of TLT1 and fibrinogen using the Biacore T100 evaluation software."}, "[10]": {"target": "T5, human fibrinogen (HCI-0150R, …)", "experiment": "SPR (Biacore T100), TLT1 immobilised on CM5, fibrinogen as analyte", "protocol": "as §1"}},
  "data": [
    {"binder": "B1", "values": [
      {"measurement": "FVIIa amidolytic activity (chromogenic substrate S2288, A405)", "setting": "[1]", "value": "similarly stimulate FVIIa activity in a concentration dependent manner identical to that of hTF.1-219"},
      {"measurement": "FVIIa amidolytic activity (chromogenic substrate S2288, A405)", "setting": "[2]", "value": "Binding of hTF.1-219 to FVIIa increases the FVIIa catalytic activity"},
      {"measurement": "FVIIa amidolytic activity (chromogenic substrate S2288, A405)", "setting": "[3]", "value": "stimulate FVIIa amidolytic activity in a concentration dependent manner indistinguishable from that induced by hTF.1-219"}
    ]},
    {"binder": "B2", "values": [
      {"measurement": "FX activation: response with resting platelets relative to activated platelets", "setting": "[4]", "value": "8 % of the response with activated platelets"},
      {"measurement": "FVII-mediated FXa generation % Activity lipidated TLT-1", "setting": "[5]", "value": 97, "unit": "%"}
    ]},
    {"binder": "B3", "values": [
      {"measurement": "FX activation: response with resting platelets relative to activated platelets", "setting": "[6]", "value": "~20 % of the response with activated platelets"},
      {"measurement": "FVII-mediated FXa generation % Activity activated plts (n 1)", "setting": "[7]", "value": 215, "unit": "%"},
      {"measurement": "FVIIa-mediated FXa generation % Activity activated plts (n 1)", "setting": "[7]", "value": 143, "unit": "%"}
    ]},
    {"binder": "B4", "values": [
      {"measurement": "binding result", "setting": "[8]", "value": "binds"}
    ]},
    {"binder": "B5", "values": [
      {"measurement": "kon", "setting": "[9]", "value": 4170, "unit": "M⁻¹ s⁻¹"},
      {"measurement": "Kd", "setting": "[10]", "value": 94, "unit": "nM"},
      {"measurement": "koff", "setting": "[10]", "value": 0.000392, "unit": "s⁻¹"}
    ]}
  ]
}
